{"source": "paper PMC11923092", "key": {"[1]": {"test": "SEC; construct with a partial Aes^N fragment fused to MBP at 150 µM; aggregate content"}, "[2]": {"test": "SEC; constructs with partial Aes^N fragments fused to MBP, 30 µM each; aggregate and monomer content"}, "[3]": {"test": "SEC; analytical SEC without prior concentration adjustment; cysteine-containing proteins reduced with 0.5 mM TCEP before SEC"}, "[4]": {"test": "SEC; 1P at an isolated protein concentration of 45 µM; monomer against aggregate"}, "[5]": {"test": "SEC; Superdex 200 10/300, 4 °C, 0.75 mL/min, assay buffer; protein as isolated; soluble aggregate at the void volume against the monomer"}, "[6]": {"test": "SEC; analytical SEC at 15 °C after dilution to 10 µM and 24 h at 15 °C in 50 mM Tris, 300 mM NaCl, pH 7; aggregate/monomer ratio from peak areas"}}, "data": [{"substance": "14P, MBP fusion of Aes^N aa69-120", "values": [{"measurement": "aggregated fraction (SEC)", "setting": "[1]", "result": "9% at 30 µM and 15% at 150 µM"}, {"measurement": "aggregated fraction (SEC)", "setting": "[2]", "result": "9% at 30 µM and 15% at 150 µM"}]}, {"substance": "MBP-Ssp^N-H6 (25P)", "values": [{"measurement": "aggregated fraction (SEC)", "setting": "[3]", "result": "high-molecular weight aggregate fraction (ca. 66%)"}, {"measurement": "monomeric fraction (SEC)", "setting": "[3]", "result": "a monomeric fraction (ca. 34%)"}]}, {"substance": "MBP-Aes^N-H6 (1P)", "values": [{"measurement": "monomeric fraction (SEC)", "setting": "[4]", "result": "at 45 µM and 135 µM only about 4% and no detectable monomeric species were present"}, {"measurement": "aggregated fraction (SEC)", "setting": "[5]", "result": "about 71% of the protein"}, {"measurement": "monomeric fraction (SEC)", "setting": "[5]", "result": "about 29%"}, {"measurement": "monomeric fraction (SEC)", "setting": "[6]", "result": "19% measured for the WT (1P)"}]}, {"substance": "GFP-Npu^N-H6 (27P)", "values": [{"measurement": "monomeric fraction (SEC)", "setting": "[3]", "result": "this precursor existed to only 43% as a monomer"}]}, {"substance": "13P, MBP fusion of Aes^N aa62-120", "values": [{"measurement": "aggregated fraction (SEC)", "setting": "[2]", "result": "showed a significant aggregated fraction (53%)"}]}]}
